These results are taken from patent US20260116946A1, “NOVEL CD200 FUSION PROTEINS” (DUCENTIS BIOTHERAPEUTICS LIMITED, priority 2022, published 2026).

The target of test [1] is Recombinant Cyno CD200R, His-tagged (Creative Biomart CD200R1-3483C) (cynomolgus) (UniProt G7NZT0). Put plainly: SPR (BIAcore), DS-155 captured via anti-human Fc, CynoCD200R1 as analyte, DRC = 1000 nM to 62.5 nM (5 curves), 25 °C, 1:1 Binding fit; Run 1.
Test [2] has as its target Recombinant Human CD200R, His-tagged (Creative Biomart CD200R1-320H) (human) (UniProt Q8TD46). In words: SPR (BIAcore T200), CD200-Fc captured on anti-human Fc, human CD200R in solution, 25 C.
The target is the same in test [3]. In words: SPR (BIAcore), DS-155 captured via anti-human Fc, HuCD200R1 as analyte, DRC = 500 nM to 31.25 nM (5 curves), 25 °C, 1:1 Binding fit; Run 1.
In test [4] the target is Recombinant Cyno CD200R, His-tagged (Creative Biomart CD200R1-3483C) (cynomolgus) (UniProt G7NZT0). In words: SPR (BIAcore T200), CD200-Fc captured on anti-human Fc, cyno CD200R in solution, 25 C.
Test [5] has the same target. In words: SPR (BIAcore T200), CD200-Fc captured on anti-human Fc, cyno CD200R in solution, 25 C, mean of two runs.
Test [6] has as its target Recombinant Human CD200R, His-tagged (Creative Biomart CD200R1-320H) (human) (UniProt Q8TD46). In words: SPR (BIAcore T200), CD200-Fc captured on anti-human Fc, human CD200R in solution, 25 C, mean of two runs.
Test [7] addresses Recombinant Cyno CD200R, His-tagged (Creative Biomart CD200R1-3483C) (cynomolgus) (UniProt G7NZT0). In words: SPR (BIAcore), DS-155 captured via anti-human Fc, CynoCD200R1 as analyte, DRC = 1000 nM to 62.5 nM (5 curves), 25 °C, 1:1 Binding fit; Run 2.
Test [8] deals with Recombinant Human CD200R, His-tagged (Creative Biomart CD200R1-320H) (human) (UniProt Q8TD46). In words: SPR (BIAcore), DS-155 captured via anti-human Fc, HuCD200R1 as analyte, DRC = 500 nM to 31.25 nM (5 curves), 25 °C, 1:1 Binding fit; Run 2.
Sequence of Recombinant Human CD200R, His-tagged (Creative Biomart CD200R1-320H) (human) (Q8TD46 27-266 limits assumed): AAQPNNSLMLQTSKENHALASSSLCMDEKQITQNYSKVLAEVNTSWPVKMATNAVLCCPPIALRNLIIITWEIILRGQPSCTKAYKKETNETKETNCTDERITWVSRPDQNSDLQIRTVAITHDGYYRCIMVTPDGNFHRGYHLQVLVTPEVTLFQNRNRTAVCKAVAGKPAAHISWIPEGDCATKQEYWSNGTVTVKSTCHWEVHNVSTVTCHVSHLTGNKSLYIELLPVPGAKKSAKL
The target is the same in test [9]. In words: not described (affinity label of the construct for CD200R).
The target of test [10] is T1, muCD200R-Fc (Creative Biomart CD200R1-458M) (mouse, UniProt Q9ES57 26-238).
T1 construct: Bought reagent; also called captured CD200R; not shown: Fc part of the bought fusion; captured on anti-human IgG Fc
T1 sequence (looked up): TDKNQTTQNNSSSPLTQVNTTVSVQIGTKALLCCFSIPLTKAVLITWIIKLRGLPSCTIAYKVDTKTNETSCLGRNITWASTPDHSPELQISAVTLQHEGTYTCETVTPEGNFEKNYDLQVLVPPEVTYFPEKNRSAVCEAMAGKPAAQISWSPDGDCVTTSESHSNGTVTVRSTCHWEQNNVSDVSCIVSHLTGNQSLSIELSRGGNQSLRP
Put plainly: SPR, muCD200R-Fc captured on anti-human IgG Fc, CD200 monomers in solution. The procedure:
For human CD200 constructs: anti-human Fc (GE Healthcare) was covalently immobilized on a BIAcore CM5 sensor chip (Cytiva, BR100530) by amine coupling using a Cytiva kit (BR100839) following the manufacturer's instructions, targeting immobilization of 8,000-11,000 RU. CD200-Fc proteins were diluted to 0.5 μg/mL to 4 μg/mL in running Buffer (1×HBS-EP+pH7.4 (Cytiva BR100669), HEPES Buffered Saline pH 7.4 containing 3 mM EDTA and 0.05% v/v Surfactant P20) and flowed for 25 to 100 seconds at […] over the immobilized Anti-Human IgG Fc, with a stabilization time of 60 seconds. Between 35 and 250 RUs of CD200-Fc were captured, with higher RUs used for cynomolgus CD200R binding experiments. […] Analysis temperature was 25° C. This was followed by regeneration of the surface with 30-90 second pulse of 3M MgCl₂ flowed at 30 μL/min flow rate followed by stabilization of the surface with 60 second flow of running buffer.
(§1) For mouse CD200 constructs, muCD200R-Fc (Creative Biomart CD200R1-458M) diluted to 1 μg/mL in running buffer was flowed over the immobilized Anti-Human IgG Fc, with CD200 monomers serially diluted and flowed over captured CD200R. Other details were as above. Data analysis: experimental sensorgrams were analyzed in BIAevaluation software (GE Healthcare). The curves obtained were fitted to 1:1 Langmuir binding model by setting Rmax and RI as local parameters. Rate equations using standard parameters (e.g. ligand concentration, time) were used for iterative curve fitting. Closeness of fit was determined by algorithms provided by the manufacturer in the BIAevaluation software, and data accepted if the Chi² value was less than 10% of Rₘₐₓ, and the U value was less than or equal to 15.

A further test has as its system male DBA/1J mice. Put plainly: Mouse collagen-induced arthritis (CIA) model, preventative dosing. The test is classed as in vivo. Conditions: 3 mg/kg once every 3 days, day 22 to 36; scores day 25-36. As for the experimental part: Wild type (DS-198) and higher affinity (DS-227) murine CD200-Fc proteins were tested using a CIA model by initiating dosing just prior to symptom onset. Arthritis was induced in male DBA/1J mice by intradermal injection of bovine type II collagen in CFA (complete Freund's adjuvant) on day 1, followed by a booster injection in incomplete Freund's adjuvant on day 21. […] Clinical scores of paw arthritis (blinded assessment) were measured from day 25-36 on alternate days. The data in FIG. 9 are shown as Mean±SEM. **p<0.01; ***p<0.001 vs Disease+Dexa, Disease+DS-198, & Disease+DS-227. Two-way RM ANOVA followed by Tukey's multiple comparisons test.

In the next test the target is T2, muCD200R-Fc (Mus musculus, UniProt Q9ES57).
T2 construct: purchased Creative Biomart CD200R1-458M
T2 sequence (Q9ES57 26-238 limits assumed): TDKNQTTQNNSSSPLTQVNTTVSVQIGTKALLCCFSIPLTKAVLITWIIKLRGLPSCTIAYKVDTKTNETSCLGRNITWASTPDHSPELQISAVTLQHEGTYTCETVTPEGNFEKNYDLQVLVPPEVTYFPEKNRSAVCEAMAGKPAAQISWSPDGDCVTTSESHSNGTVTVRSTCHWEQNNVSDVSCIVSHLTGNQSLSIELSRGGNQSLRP
Put plainly: BIAcore SPR binding of murine CD200 variants to muCD200R-Fc. As for the experimental part:
as §1, with “Chi^2” for “Chi²”, “Rmax,” for “Rₘₐₓ,”
Murine CD200 constructs used Uniprot sequence O54901, containing the signal peptide and extracellular domains. Mutation numbers refer to the full Uniprot sequences including signal peptide.
Proteins were generated by transient transfection of pcDNA 3.1-based expression plasmids into CHO-3E7 cells using Polyethyleneimine (PEI). 24 hours post transfection, cultures were shifted to 32° C., fed with 10% feed C, glutamine, glucose and […] Sodium butyrate; supernatants were harvested and filtered at day 7. Purification was performed at 4° C. using MabSelect SuRe 5 ml affinity columns (Cytiva), pre-equilibrated with 50 mM Sodium Phosphate, 150 mM NaCl PH 7.4, at a flowrate of 3 mL/min on a AKTA Pure platform. The column was washed with equilibration buffer and bound protein eluted using 20 mM sodium acetate, 150 mM NaCl pH 3.5. Elutes were neutralized with 10% v/v 1 M Tris pH 8.0 and analysed by SDS-PAGE. Pooled fractions were concentrated to 5 mL and subjected to gel-filtration chromatography (Hiload 16/600 Superdex-200 pg column) on a AKTA Pure platform. The protein was processed in 50 mM Sodium Phosphate, 150 mM NaCl pH 7.4 buffer system at 1.2 mL/min. Fractions containing protein were pooled and concentrated using an Amicon Ultra Centricon (10 kDa molecular weight cut-off) to 1.33 mg/mL (measured at UV 280 nm). The purified material was subjected to SEC-HPLC, LC-MS and EndoSafe LAL cartridge test to assess protein purity, molecular mass and endotoxin content, respectively. Mouse CD200-his proteins were purified with Ni-NTA agarose resin using standard methodology. All proteins were stored at −80° C.

Where [11] appears, read: murine CD200, stated in text, read-out: binding affinity.

Like-named read-outs stand apart in the source and are kept apart here.

“DS-155 (wild-type human CD200-Fc, IgG4 S228P) (from UniProt P41217 31-232; P01861 99-327) (Fc fusion)”: the Kd in [1] stood at 888 nM; in test [3] it was 174 nM; in test [5], 971 nM; in test [6], 179 nM; in test [7], 1050 nM; in test [8] it was 183 nM. Besides, the koff came to 0.0564 s⁻¹ in test [1]; 0.0324 s⁻¹ in [3]; 0.0586 s⁻¹ in test [5]; 0.0326 s⁻¹ in test [6]; 0.0608 s⁻¹ in [7]; 0.0329 s⁻¹ in test [8]. In addition, the kon was 63500 M⁻¹ s⁻¹ in [1]; 186000 M⁻¹ s⁻¹ in [3]; 60600 M⁻¹ s⁻¹ in test [5]; 183000 M⁻¹ s⁻¹ in test [6]; 57600 M⁻¹ s⁻¹ in [7]; 180000 M⁻¹ s⁻¹ in [8]. Moreover, the values for the t½ in test [2] and in test [4] were 21 s and 12 s, respectively.

As for “DS-192 (human CD200 K130Y - IgG4 S228P Fc) (from UniProt P41217 31-232; P01861 99-327) (Fc fusion)”, the Kd in test [9] turned out to be 13 nM.

B1: murine CD200 wild type (Table 7 'wt') (ligand, mouse, UniProt O54901 31-232, looked up)
chain: QVEVVTQDERKALHTTASLRCSLKTSQEPLIVTWQKKKAVSPENMVTYSKTHGVVIQPAYKDRINVTELGLWNSSITFWNTTLEDEGCYMCLFNTFGSQKVSGTACLTLYVQPIVHLHYNYFEDHLNITCSATARPAPAISWKGTGTGIENSTESHFHSNGTTSVTSILRVKDPKTQVGKEVICQVLYLGNVIDYKQSLDKG
notes: extracellular domain; The Fc fusion with the same CD200 part is DS-198 (muIgG2a); also called mouse CD200-his; CD200 monomer
As to B1, in test [10], the “T1/2” value was found to be 17.3 s.

B2: DS-227: high affinity murine CD200-Fc, CD200 H82Y, T125I, muIgG2a Fc (protein)
chain: QVEVVTQDERKALHTTASLRCSLKTSQEPLIVTWQKKKAVSPENMVTYSKTYGVVIQPAYKDRINVTELGLWNSSITFWNTTLEDEGCYMCLFNIFGSQKVSGTACLTLYVQPIVHLHYNYFEDHLNITCSATARPAPAISWKGTGTGIENSTESHFHSNGTTSVTSILRVKDPKTQVGKEVICQVLYLGNVIDYKQSLDKG
modifications: left off: small tags and cut ends
Take B2: the “clinical score of paw arthritis” value in the test on male DBA/1J mice is “significantly more potent in reducing clinical score than wild type (DS-198)”. In addition, the Kd with muCD200R-Fc (setting [11]) worked out at 43 nM.

B3: H82Y, T125I: murine CD200 combination variant H82Y, T125I of Table 7 (protein)
chain: QVEVVTQDERKALHTTASLRCSLKTSQEPLIVTWQKKKAVSPENMVTYSKTYGVVIQPAYKDRINVTELGLWNSSITFWNTTLEDEGCYMCLFNIFGSQKVSGTACLTLYVQPIVHLHYNYFEDHLNITCSATARPAPAISWKGTGTGIENSTESHFHSNGTTSVTSILRVKDPKTQVGKEVICQVLYLGNVIDYKQSLDKG
For the molecule B3, the Kd with muCD200R-Fc (setting [11]) came out at 43 nM; with muCD200R-Fc (murine CD200 variants, table head prints no unit, nM, read-out: KD), 43.3 ± 4.9 nM. For the same molecule, the “fold higher binding affinity than wild type” value with muCD200R-Fc (versus wild type murine CD200) is given as “approximately 14 fold”.

B4: murine CD200 H82Y, T125I (Table 7 combination variant) (ligand, mouse, UniProt O54901 31-232, looked up)
chain: QVEVVTQDERKALHTTASLRCSLKTSQEPLIVTWQKKKAVSPENMVTYSKTYGVVIQPAYKDRINVTELGLWNSSITFWNTTLEDEGCYMCLFNIFGSQKVSGTACLTLYVQPIVHLHYNYFEDHLNITCSATARPAPAISWKGTGTGIENSTESHFHSNGTTSVTSILRVKDPKTQVGKEVICQVLYLGNVIDYKQSLDKG
notes: extracellular domain; The Fc fusion with the same mutations is DS-227 (muIgG2a, called '43 nM muCD200-Fc'); also called combination variant H82Y, T1251; mouse CD200-his
In the case of B4, in test [10], the “T1/2” value came out at 118 s and the “fold higher binding affinity than wild type” value is around 14 fold.
